From article PMC5526789, “Structure of Full-Length SMC and Rearrangements Required for Chromosome Organization” (Molecular Cell, 2017)
One block for each molecule: values may come before it.

Columns and labels:
[1] = target: BsSmcH-CC8(N634C) (Bacillus subtilis) (UniProt P51834); assay: cross-linking; subunit exchange: equal amounts of two purified single-cysteine proteins mixed on ice, incubated at 37°C in 50 mM Tris-HCl pH 7.4, 200 mM NaCl, 1 mM TCEP; aliquots cross-linked with 200 µM BMOE (R558C to N634C at the hinge dimer interface); SDS-PAGE and Agilent 2100 Bioanalyzer; dimer to monomers
[2] = target: Smc(D193C, mH, E1118Q)-HaloTag (Bacillus subtilis) (UniProt P51834); assay: cross-linking; in vivo cysteine cross-linking: intact B. subtilis cells grown in SMG, 0.5 mM BMOE on ice; Smc-HaloTag labelled with HaloTag-TMR, SDS-PAGE, in-gel fluorescence; S152C and D193C report juxtaposed (disengaged) heads of the rod, K1151C ATP-engaged heads, A715C the arm/arm interface near the hinge
[3] = target: Smc(S152C, mH, E1118Q)-HaloTag (Bacillus subtilis) (UniProt P51834); assay: as above
[4] = target: the molecule itself; assay: crystal structure; BsSmcCC2, hanging drop, 4°C, PEG 3350, Tris pH 8, MPD, calcium acetate; space group P1, two dimers in the asymmetric unit

Molecule: Smc(D193C, mH, E1118Q)-HaloTag (from UniProt P51834 1-1186) (natural protein)
cross-linking relative to wild type (% of wild-type levels) [2]: 20

B1: BsSmcCC2 (domain or fragment, Bacillus subtilis)
chain: EKVQMAKEEELAESSAISAKEAKIEDTRDKIQALDESVDELQQVLLVTSEELEKLEGRKEVLKERKKNAVQNQEQLEEAIVQFQQKETVLKEELSKQEAVFETLQAEVKQLRAQVKEKQQALSLHNENVEEKIESGGSGGSRLTKQKQTQSSTKESLSNELTELKIAAAKKEQACKGEEDNLARLKKELTETELALKEAKEDLSFLTSEMSSSTSGEEKLEEAAKHKLNDKTKTIELIALRRDQRIKLQHGLDTYERELKEMKRLYKQKTTLLKDEEV
notes: Smc of Bacillus subtilis, residues 246-379 (N-terminal coiled-coil helix); linker; Smc of Bacillus subtilis, residues 793-929 (C-terminal coiled-coil helix); Selenomethionine-labelled protein was used for the SAD data; also called Smc middle segment; Bs Smc (246-379)/SGGSGGS/(793-929); source: E. coli BL21[DE3], purified (His-Trap, MonoQ, TEV cleavage, Superdex 200); not shown: His6, N-terminal, …
binding result [4]: binds

The next lines start with the values.

half-life of the hinge dimer (subunit exchange) [1]: 49 min
Molecule: BsSmcH-CC8(R558C) (from UniProt P51834 519-637) (domain or fragment)

cross-linking relative to wild type (% of wild-type levels) [3]: 20
Molecule: Smc(S152C, mH, E1118Q)-HaloTag (from UniProt P51834 1-1186) (natural protein)
